These results are taken from paper PMC3570547, “An Experimental Verification of the Predicted Effects of Promoter TATA-Box Polymorphisms Associated with Human Diseases on Interactions between the TATA Boxes and TATA-Binding Protein”.

For this data set, the target named is TBP (TATA-binding protein, hTBP) (Homo sapiens, UniProt P20226 1-339). Description: EMSA; Fixed active TBP (typically 0.3 nM) titrated with 32P dsDNA to equilibrium; buffer, salt, pH and temperature not given in the material. As to conditions: protein: recombinant; label: 32P both strands; blunt.
Chain of TBP (TATA-binding protein, hTBP) (P20226 whole entry): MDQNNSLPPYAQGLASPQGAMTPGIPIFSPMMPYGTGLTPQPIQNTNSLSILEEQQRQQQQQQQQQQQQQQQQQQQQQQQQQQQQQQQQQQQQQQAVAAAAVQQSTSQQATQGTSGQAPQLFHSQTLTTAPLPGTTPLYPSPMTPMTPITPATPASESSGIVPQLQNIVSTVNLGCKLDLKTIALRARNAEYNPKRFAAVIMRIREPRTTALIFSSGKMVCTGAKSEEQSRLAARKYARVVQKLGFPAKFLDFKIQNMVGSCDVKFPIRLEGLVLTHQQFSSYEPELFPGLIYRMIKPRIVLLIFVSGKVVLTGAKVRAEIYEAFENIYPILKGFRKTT

B1: HBB -30T>A (dsDNA)
DNA 1: CAGGGCTGGGCAAAAAAGTCAGGGCA
DNA 2: TGCCCTGACTTTTTTGCCCAGCCCTG
For B1, the Kd turned out to be 116 ± 5 nM.

B2: HBB -27A>T (dsDNA)
DNA 1: CAGGGCTGGGCATAATAGTCAGGGCA
DNA 2: TGCCCTGACTATTATGCCCAGCCCTG
With B2, the Kd stood at 64 ± 3 nM.

B3: SOD1 TATA WT (dsDNA)
DNA 1: AGGTCTGGCCTATAAAGTAGTCGCGG
DNA 2: CCGCGACTACTTTATAGGCCAGACCT
Take B3: the Kd is 40 ± 8 nM.

B4: HBB TATA WT (dsDNA)
DNA 1: CAGGGCTGGGCATAAAAGTCAGGGCA
DNA 2: TGCCCTGACTTTTATGCCCAGCCCTG
As for B4, the Kd was determined as 44 ± 3 nM.

B5: IL1B -31C>T (dsDNA)
DNA 1: TTTTGAAAGCTATAAAAACAGCGAGG
DNA 2: CCTCGCTGTTTTTATAGCTTTCAAAA
Turning to B5, the Kd was 7 ± 1 nM.

B6: FIX TATA WT (dsDNA)
DNA 1: ACAGCTCAGCTTGTACTTTGGTACAA
DNA 2: TTGTACCAAAGTACAAGCTGAGCTGT
For B6, the Kd came out at 510 ± 60 nM.

B7: HBB -28A>C (dsDNA)
DNA 1: CAGGGCTGGGCATACAAGTCAGGGCA
DNA 2: TGCCCTGACTTGTATGCCCAGCCCTG
Regarding B7, the Kd worked out at 300 ± 20 nM.

B8: MBL2 TATA WT (dsDNA)
DNA 1: CATCTATTTCTATATAGCCTGCACCC
DNA 2: GGGTGCAGGCTATATAGAAATAGATG
On to B8, for which the Kd was found to be 28 ± 4 nM.

B9: TF -21C>T (dsDNA)
DNA 1: GCCGGCCCTTTATAGTGCGCGGGGCA
DNA 2: TGCCCCGCGCACTATAAAGGGCCGGC
Consider B9, for which the Kd came to 26 ± 3 nM.

B10: HBB -29A>G (dsDNA)
DNA 1: CAGGGCTGGGCATGAAAGTCAGGGCA
DNA 2: TGCCCTGACTTTCATGCCCAGCCCTG
On to B10, for which the Kd was 390 ± 20 nM.

B11: NOS2A -21T>C (dsDNA)
DNA 1: ATGGGGTGAGTATAAATACCTCTTGG
DNA 2: CCAAGAGGTATTTATACTCACCCCAT
For the molecule B11, the Kd was determined as 1.6 ± 0.3 nM.

B12: globin pseudogene -70T>C (dsDNA)
DNA 1: CTGCCACACCCACATTATCAGAAAAT
DNA 2: ATTTTCTGATAATGTGGGTGTGGCAG
Turning to B12, the Kd was found to be 112 ± 6 nM.

B13: CYP2A6 -48T>G (dsDNA)
DNA 1: TTTCAGGCAGTAGAAAGGCAAACCAC
DNA 2: GTGGTTTGCCTTTCTACTGCCTGAAA
As to B13, the Kd came to 80 ± 20 nM.

B14: HBB -30T>C (dsDNA)
DNA 1: CAGGGCTGGGCACAAAAGTCAGGGCA
DNA 2: TGCCCTGACTTTTGTGCCCAGCCCTG
With B14, the Kd was 111 ± 8 nM.

B15: globin pseudogene TATA WT (dsDNA)
DNA 1: CTGCCACACCCACATTATTAGAAAAT
DNA 2: ATTTTCTAATAATGTGGGTGTGGCAG
Regarding B15, the Kd turned out to be 152 ± 6 nM.

B16: CYP2A6 TATA WT (dsDNA)
DNA 1: TTTCAGGCAGTATAAAGGCAAACCAC
DNA 2: GTGGTTTGCCTTTATACTGCCTGAAA
Regarding B16, the Kd amounted to 17 ± 4 nM.

B17: NOS2A TATA WT (dsDNA)
DNA 1: ATGGGGTGAGTATAAATACTTCTTGG
DNA 2: CCAAGAAGTATTTATACTCACCCCAT
For the molecule B17, the Kd was found to be 1.8 ± 0.2 nM.

B18: HBD -31A>G (dsDNA)
DNA 1: ACAGGACCAGCGTAAAAGGCAGGGCA
DNA 2: TGCCCTGCCTTTTACGCTGGTCCTGT
Turning to B18, the Kd worked out at 120 ± 10 nM.

B19: HBD TATA WT (dsDNA)
DNA 1: ACAGGACCAGCATAAAAGGCAGGGCA
DNA 2: TGCCCTGCCTTTTATGCTGGTCCTGT
In the case of B19, the Kd amounted to 46 ± 5 nM.

B20: HBB -31A>G (dsDNA)
DNA 1: CAGGGCTGGGCGTAAAAGTCAGGGCA
DNA 2: TGCCCTGACTTTTACGCCCAGCCCTG
Regarding B20, the Kd worked out at 99 ± 9 nM.

B21: SOD1 -27A>G (dsDNA)
DNA 1: AGGTCTGGCCTGTAAAGTAGTCGCGG
DNA 2: CCGCGACTACTTTACAGGCCAGACCT
Turning to B21, the Kd came to 170 ± 30 nM.

B22: TPI -24T>G (dsDNA)
DNA 1: CGCGGCGCTCTATAGAAGTGGGCAGT
DNA 2: ACTGCCCACTTCTATAGAGCGCCGCG
For B22, the Kd was found to be 150 ± 20 nM.

B23: IL1B TATA WT (dsDNA)
DNA 1: TTTTGAAAGCCATAAAAACAGCGAGG
DNA 2: CCTCGCTGTTTTTATGGCTTTCAAAA
In the case of B23, the Kd is 29 ± 4 nM.

B24: MBL2 -35T>C (dsDNA)
DNA 1: CATCTATTTCTACATAGCCTGCACCC
DNA 2: GGGTGCAGGCTATGTAGAAATAGATG
Consider B24, for which the Kd was 58 ± 9 nM.

B25: TPI TATA WT (dsDNA)
DNA 1: CGCGGCGCTCTATATAAGTGGGCAGT
DNA 2: ACTGCCCACTTATATAGAGCGCCGCG
Take B25: the Kd came out at 4.8 ± 0.7 nM.

B26: TF TATA WT (-21C) (dsDNA)
DNA 1: GCCGGCCCTTTATAGCGCGCGGGGCA
DNA 2: TGCCCCGCGCGCTATAAAGGGCCGGC
Consider B26, for which the Kd stood at 72 ± 9 nM.

B27: HBB -28A>G (dsDNA)
DNA 1: CAGGGCTGGGCATAGAAGTCAGGGCA
DNA 2: TGCCCTGACTTCTATGCCCAGCCCTG
As to B27, the Kd was determined as 87 ± 8 nM.
